From publication PMC2749851, “Interaction of ZEB and Histone Deacetylase with the PLDLS-binding cleft region of monomeric C-terminal Binding Protein 2” (BMC Molecular Biology, 2009) come the findings set out here.

For the assay, the target named is T1, H6-CtBP2 (UniProt P56545 1-445).
T1 construct: also called H6-tagged wt CtBP2; wt CtBP2; source: purified
The assay is described as follows: pull-down; GST fusion proteins charged on glutathione-agarose beads, incubated with purified H6-CtBP2 or H6-RR-CtBP2 (~0.1 μg) in 200 μl of 25 mM Tris-HCl pH 7.5, 0.25 M NaCl, 0.5% Triton X-100, 0.5 mM DTT for 1 h at 4°C; Western blot with the CtBP2 antibody. To be noted: both partners purified. (In general: Immunoblotting shows a protein as a band on a membrane.)

B1: GST-ZEB101 (domain or fragment, UniProt P37275-1 680-780, looked up)
chain: PLKMTNSPVLPVGSTTNGSRSSTPSPSPLNLSSSRNTQGYLYTAEGAQEEPQVEPLDLSLPKQQGELLERSTITSVYQNSVYSVQEEPLNLSCAKKEPQKD
notes: ZEB (ZEB1), GenBank NM_030751, aa 680-780; transferred from pGFP-ZEB101 to a pGST vector at XhoI/EcoRI; also called wt ZEB101; source: induced with 1 mM IPTG; lysate loaded onto glutathione-agarose beads
Turning to B1, the binding result was “binds”.
